According to US20220306729A1 (published 2022):
Numbering of substitutions follows the chain as printed.

B1: Z021 (MEX84_p4-23) (antibody, V domains shown)
VH: QVQLQESGPGLVKPSETLSLTCTVSGGSIDTYYWSWIRQTPGKGLEWIGCFYYSVDNHFNPSLESRVTISVDTSKNQFSLKMTSMTASDTAVYYCARNQPGGRAFDYWGPGTLVTVSS
VL: EIVLTQSPATLSLSPGQRATLSCRASQSVSNYFAWYQQKPGQAPRLLIYDTSKRATGTPARFSGSGSGTDFTLTISSLEPEDFAVYYCQERNNWPLTWTFGLGTKVEIK
B2: Z004 (MEX18_89) (antibody, V domains shown)
VH: EVQLLESGGGLVQPGGSLRLTCATSGFTFRDYAMSWVRQAPGKGLEWVSSYSGIDDSTYYADSVKGRFTISRDNSKSTLSLHMNSLRAEDSALYFCAKDRGPRGVGELFDSWGQGTLVTVSS
VL: DIQMTQSPSTLSASVGDRVTITCRASQSISKWLAWYQQKPGKAPKLLIYTTSTLKSGVPSRFSGSGSGTEFTLTISSLQPDDFATYYCQHFYSVPWTFGQGTKVEIK
notes: also called biotin-Z004 (biotinylated form)
B3: Z044 (BRA138_46) (antibody, V domains shown)
VH: QVQLVQSGAEVKKPGASVKVSCKASGYTFTSTYIHWVRQAPGQGLEWMGIINPSSSNTNYAQKFQGRVTMTRDTSTSTVYMELSSLRSEDTAVYYCARDFGGYSSSSVSDAFDIWGQGTMVTVSS
VL: QSALTQPASVSGSPGQSITISCTGTSSDVGSFNLVSWYQQHPGKAPKLIIYEVSKRPSGVSNRFSGSKSGNTASLTISGLQAEDEVHYYCCSYAGSSRFVFGTGTKVTVL
B4: Z040 (BRA12_81) (antibody, V domains shown)
VH: EVQLLESGGGLVQPGGSLRLSCAASGFTFSTYAMSWVRQAPGKGLEWVSAISGSGRSTYYADSVKGRFTISRDNSKNTLYLQMNSLRGEDTAVYYCAKSSGGHNWNYVDYYYGMDVWGQGTTVTVSS
VL: DIQLTQSPSFLSASVGDRVTITCRASQGISSYLAWYQQKPGKAPKLLIYAASTLQSGVPSRFSGSGSGTEFTLTISSLQPEDFATYYCQQLNSYPVTFGPGTKVDIK
B5: Z054 (BRA138_94) (antibody, V domains shown)
VH: QLQLQESGPRLVKPSETLFLTCTVSGDSISSSSYFWGWIRQPPGKGLEWIGSISYSGSTYYNPSLKSRVTISVDTSKNQFSLKLSSVTAADTVVYYCAKHLYSSSWNIGSSFDSWGPGTLVTVSS
VL: EIVLTQSPATLSLSPGERATLSCRASQSVSIYLAWYQQKPGQAPRLLIYDASSRATGIPARFSGSGSGTDFTLTISSLEPEDFAVYYCQQRSNWPVYTFGQGTKVEIK
B6: Z032 (BRA112_24) (antibody, V domains shown)
VH: EVQLLESGGRLVQPGGSLTLSCAASGFPFSTYAMSWLRQAPGKGLEWVSGITGDSGSTYYAASVKGRFTISRDNSKNTLYLQMNSLTADDTAVYYCAKDRLHSGLGELFSYWGQGTLVTVSS
VL: DIQMTQSPSTLSASVGDRVNITCRASQSINQWLAWYQQKPGKAPKFLMYKASTLETGVPSRFSGSGSGTEFTLTISSLQPDDFATYYCQHYFSYPWTFGQGTKVEIK
B7: Z031 (BRA112_46) (antibody, V domains shown)
VH: EVQLLESGGGLVQPGGSLRLSCVASGFTFGSYGMAWVRQAPGKGLEWISSISSIDPSTYYADSVKGRFTVSRDNSENTLYLHMSSLKVEDTAVYFCAKDRLNGGFGELFASWGQGTLVTVSS
VL: DIQMTQSPSTLSASVGDSVTITCRASQSISSWLAWYQQKPGKAPKFLIHKASSLESGIPSRFSGSGSGTEFTLTINNLQPDDFATYYCQHYHSYPWTFGQGTKVEIK
B8: Z038 (BRA12_2) (antibody, V domains shown)
VH: EVQLLESGGGLVQPGGSLRLSCEASGFTFSNYAMNWVRQAPGKGLEWVSTLGATDNSGDSTYYVESAKGRFTISRDNSKNTLYLQMNSLRVEDTAVYFCAKDRTGNIGAGTGYFDKWGQGTLVTVSS
VL: DIQMTQSPSTLSASVGDRVTITCRASHRISGWLAWYQQKPGKAPKLLIYQASGLESGVPSRFSGSGYGTEFTLTISSLQADDFATYYCQQYNNYPWTFGQGTKVEIK
notes: also called BRA12_02
B9: Z006 (MEX105_42) (antibody, V domains shown)
VH: EVQLLESGGGLVQPGGSLRLSCAASGFTFKNYAMAWVRQAPGKGLEWVSLLYNSEESTYYADSVKGRFTISRDNSKNTLFLQMNRLRVEDTAVYFCVRDRSNGWSSINLWGRGTLVTVSS
VL: DIQMTQSPSTLSASVGDRVTMTCRASQTISGWLAWYQQKPGKAPKLLIYQASRLESGIPSRFSGSGSGTEFTLTISSLQPDDVATYYCQQYSTFWTFGLGTKVEIK
B10: Z010 (MEX105_88) (antibody, V domains shown)
VH: EVQLLESGGGLVQPGGSLRLSCAASGFTFSNYAMAWVRQAPGKGLEWVSLIYSGDDSTYYADFVKGRFTISRHNSKNTLSLQMNSLRAEDTAIYYCVKDRGTGWSSIVHWGQGTLVTVSS
VL: B9 VL with M21I, G31N, R53S, I58V, V83F, F94Y, L99Q
B11: Z035 (BRA112_71) (antibody, V domains shown)
VH: EVQLLESGGGLIQPGGSLRLSCAASGFTFSSYAMSWVRQAPGKGLEWVSGISGSGGASDNGASRYYADSVKGRFSISRDNSKNTVYLQMNSLRAEDTAVYYCAKDRLSGGFGELFQKWGQGTLVTVSS
VL: B6 VL with S12A, N20T, S28N, Q31S, M48I, T56S, V58A, F92Y, W96Y
B12: Z028 (MEX84_p4-53) (antibody, V domains shown)
VH: EVQLLESGGGLVQPGGSLRLSCAASGFTFSAYAMSWVRQAPGKGLEWVSSINGHSDSTYFADSVKGRFTISRDNSKNTLYLQMNSLRAEDTALYYCAKDRLREGIGELFHSWGQGTLVTVSS
VL: B6 VL with V15I, N20T, N30T, Q31P, M48I, K50Q, A51T, T53I, T56S, F92H
B13: Z001 (MEX18_21) (antibody, V domains shown)
VH: EVQLLESGGGLVQPGGSRRLSCATSGFSFDTYAMSWLRQAPGKGLEWVSSFSGLDDSTYYADSVKGRFTISRDNSKNTLYLQMNSLRAEDTAIYYCAKDRGPRGIGELFDFWGQGTLVTVSS
VL: B2 VL with K31R, T50K, G57E, Y92H

What follows are binders tested against ZIKV E protein (African strain MR766) on reporter viral particles (Zika virus, strain MR766, UniProt Q32ZE1 291-790) (assay: cell-based or functional assay).
Chain of ZIKV E protein (African strain MR766) on reporter viral particles (Q32ZE1 291-790 limits assumed): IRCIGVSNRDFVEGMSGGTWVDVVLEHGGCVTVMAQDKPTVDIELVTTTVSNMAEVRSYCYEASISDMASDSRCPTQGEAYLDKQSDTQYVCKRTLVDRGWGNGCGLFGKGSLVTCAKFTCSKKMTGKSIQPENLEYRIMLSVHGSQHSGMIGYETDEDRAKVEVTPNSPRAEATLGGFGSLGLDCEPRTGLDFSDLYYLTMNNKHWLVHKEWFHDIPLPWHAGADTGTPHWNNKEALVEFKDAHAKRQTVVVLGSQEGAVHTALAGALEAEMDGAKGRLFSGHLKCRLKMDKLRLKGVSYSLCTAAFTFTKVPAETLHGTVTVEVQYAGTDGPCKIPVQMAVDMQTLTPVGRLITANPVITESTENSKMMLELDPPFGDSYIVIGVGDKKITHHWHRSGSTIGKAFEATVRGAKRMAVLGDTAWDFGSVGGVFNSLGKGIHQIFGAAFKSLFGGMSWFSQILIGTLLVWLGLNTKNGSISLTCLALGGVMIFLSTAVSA

Binder | IC50, ZIKV RVPs
B1 | 0.7 ng/mL

The binders below were run against ZIKV E protein on infectious virus, 2015 Puerto Rican PRVABC59 strain (Zika virus, strain PRVABC59) (assay: cell-based or functional assay).

Binder | IC50, plaque reduction neutralization assay (PRNT) | IC50, plaque reduction neutralization test (PRNT)
B1 | 4 ng/mL | –
B2 | – | 2.2 ng/mL

Each binder was assayed against DENV1 E protein (strain PUO-359) on reporter viral particles or infectious virus (Dengue virus 1, strain PUO-359) (assay: cell-based or functional assay).

Binder | IC50, DENV1 neutralization (flow cytometry) | IC50, DENV1 luciferase RVPs | IC50, flow cytometry using authentic DENV1
B1 | 10.1 ng/mL | – | –
B2 | – | 1.6 ng/mL | 16.4 ng/mL

These binders were tested against T1, DENV1 EDIII, polyhistidine-AviTag, made in HEK-293-6E cells (Dengue virus 1 (NC_001477)) (assay: ELISA on EDIII (Table A)).
T1 construct: also called EDIII of DENV1
T1 sequence (P17763 577-674, tags left off): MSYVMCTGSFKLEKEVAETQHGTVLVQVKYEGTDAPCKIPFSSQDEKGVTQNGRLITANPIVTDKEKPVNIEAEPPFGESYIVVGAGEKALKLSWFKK

Binder | binding result
B3 | no binding
B4 | no binding
B5 | no binding

What follows are binders tested against WNV EDIII, polyhistidine-AviTag (West Nile virus) (assay: ELISA on EDIII (Table A)).

Binder | binding result
B3 | no binding
B4 | no binding
B5 | no binding

What follows are binders tested against T2, ZIKV envelope domain III ([..]), polyhistidine-AviTag, made in HEK-293-6E cells (Zika virus (KJ776791)) (assay: ELISA on ZIKV EDIII (Table A)).
T2 construct: also called ZEDIII; ZIKV EDIII

Binder | EC50
B6 | 0.0195 µg/mL

What follows are binders tested against T3, DENV3 EDIII, polyhistidine-AviTag (Dengue virus 3, UniProt Q6YMS4 575-672) (assay: cross-reactivity ELISA on EDIII proteins).
T3 construct: domain: EDIII

Binder | binding result
B7 | no binding (tested: 10 µg/ml)
B8 | no binding (tested: 10 µg/ml)
B9 | no binding (tested: 10 µg/ml)
B10 | no binding (tested: 10 µg/ml)
B11 | no binding (tested: 10 µg/ml)
B2 | no binding (tested: 10 µg/ml)
B12 | no binding (tested: 10 µg/ml)
B13 | no binding (tested: 10 µg/ml)

The binders below were run against T4, DENV4 EDIII, polyhistidine-AviTag (Dengue virus 4, UniProt P09866 576-673) (assay: cross-reactivity ELISA on EDIII proteins).
T4 construct: domain: EDIII

Binder | binding result
B7 | no binding (tested: 10 µg/ml)
B8 | no binding (tested: 10 µg/ml)
B9 | no binding (tested: 10 µg/ml)
B10 | no binding (tested: 10 µg/ml)
B11 | no binding (tested: 10 µg/ml)
B2 | no binding (tested: 10 µg/ml)
B12 | no binding (tested: 10 µg/ml)
B13 | no binding (tested: 10 µg/ml)

What follows are binders tested against WNV EDIII, polyhistidine-AviTag (West Nile virus) (assay: cross-reactivity ELISA on EDIII proteins).

Binder | binding result
B7 | no binding (tested: 10 µg/ml)
B8 | no binding (tested: 10 µg/ml)
B9 | no binding (tested: 10 µg/ml)
B10 | no binding (tested: 10 µg/ml)
B11 | no binding (tested: 10 µg/ml)
B2 | no binding (tested: 10 µg/ml)
B12 | no binding (tested: 10 µg/ml)
B13 | no binding (tested: 10 µg/ml)
